The results in this text go back to patent US20260103541A1 (UNIVERSIT T Z RICH, published 2026).

The target of the experiment is T1, human FAP (fibroblast activation protein) on HT1080hFAP cells (human, UniProt Q12884 1-760).
T1 construct: also called seprase
T1 sequence: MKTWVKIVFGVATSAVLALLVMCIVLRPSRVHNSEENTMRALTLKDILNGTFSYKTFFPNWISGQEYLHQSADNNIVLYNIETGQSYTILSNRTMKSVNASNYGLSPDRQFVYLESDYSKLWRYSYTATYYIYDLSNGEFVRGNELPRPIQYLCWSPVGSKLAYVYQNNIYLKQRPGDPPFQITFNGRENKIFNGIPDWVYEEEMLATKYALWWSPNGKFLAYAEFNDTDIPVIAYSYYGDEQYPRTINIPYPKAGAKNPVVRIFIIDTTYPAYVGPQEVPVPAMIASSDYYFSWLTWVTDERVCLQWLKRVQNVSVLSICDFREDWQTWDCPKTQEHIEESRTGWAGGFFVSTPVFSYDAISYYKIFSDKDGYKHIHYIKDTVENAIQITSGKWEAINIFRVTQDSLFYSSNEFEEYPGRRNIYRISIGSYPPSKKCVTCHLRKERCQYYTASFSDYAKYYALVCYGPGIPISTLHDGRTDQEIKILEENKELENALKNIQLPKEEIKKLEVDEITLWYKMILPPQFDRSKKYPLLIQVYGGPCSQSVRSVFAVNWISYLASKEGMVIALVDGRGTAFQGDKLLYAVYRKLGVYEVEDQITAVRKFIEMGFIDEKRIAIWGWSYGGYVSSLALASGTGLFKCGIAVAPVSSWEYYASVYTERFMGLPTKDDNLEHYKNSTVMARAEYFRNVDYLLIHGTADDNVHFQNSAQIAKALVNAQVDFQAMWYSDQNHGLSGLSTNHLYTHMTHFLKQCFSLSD
As to the kind of experiment: flow cytometry cell-based binding assay, HT1080hFAP against FAP-negative HT1080 cells.

B1: DARPin #20 (designed binder)
chain: DLGKKLLEAARAGQDDEVRILMANGADVNAVDYQGRTPLHLAAQYGHLEIVEVLLKTGADVNAQDHHGITPLHLAAFWGHLEIVEVLLKAGADVNAKDDQGNTPLHLAAWRGHLEIVEVLLKHGADVNAQDKFGKTPFDLAIDNGNEDIAEVLQ
notes: also called designed ankyrin repeat domain #20; not shown: N terminal His6 tag; C terminal FLAG tag
For B1, the binding result was “binds”.

B2: DARPin #25 (designed binder)
chain: DLGKKLLEAARAGQDDEVRILMANGADVNATDWQGSTPLHLAAQHGHLEIVEVLLKTGADVNAEDQNGITPLHLAAYWGHLEIVEVLLKAGADVNAVDRQGNTPLHLAAVWGHLEIVEVLLKHGADVNAQDKFGKTPFDLAIDNGNEDIAEVLQ
notes: also called designed ankyrin repeat domain #25; not shown: N terminal His6 tag; C terminal FLAG tag
Take B2: the binding result is “binds”.

B3: DARPin #5 (designed binder)
chain: DLGKKLLEAARAGQDDEVRILMANGADVNAEDHVGRTPLHLAAAHGHLEIVEVLLKTGADVNARDRHGITPLHLAAWSGHLEIVEVLLKTGADVNASDKQGNTPLHLAAYRGHLEIVEVLLEAGADVNAQDKFGKTPFDLAIDNGNEDIAEVLQ
notes: also called designed ankyrin repeat domain #5; not shown: N terminal His6 tag; C terminal FLAG tag
On to B3, for which the binding result is reported as “binds”.

B4: DARPin #4 (designed binder)
chain: DLGKKLLDAASVGQDDEVRILMANGADVNASDTYGRTPLHVAAQHGHLEIVDVLLAHGADVNASNAYGSTPLHVAAWTGHLEIVDVLLAYGADVNASNSQGNTPLHAAAATGHLEIVEVLLKHGADVNAQDKFGKTPFDLAIDNGNEDIAEVLQ
notes: also called designed ankyrin repeat domain #4; not shown: N terminal His6 tag; C terminal FLAG tag
On to B4, for which the binding result is given as “binds”.

B5: DARPin #17 (designed binder)
chain: DLGKKLLEAARAGQDDEVRILMANGADVNAADNYGITPLHLAAYRGHLEIVEVLLKTGADVNAHDNVGNTPLHLAAAKGHLEIVEVLLKAGADVNADDVQGVTPLHLAASQGHLEIVEVLLKHGADVNAQDKFGKTPFDLAIDNGNEDIAEVLQ
notes: also called designed ankyrin repeat domain #17; not shown: N terminal His6 tag; C terminal FLAG tag
In the case of B5, the binding result is on record as “binds”.

B6: DARPin #15 (designed binder)
chain: DLGKKLLEAARAGQDDEVRILMANGADVNAMDMWGITPLHLAAWAGHLEIVEVLLKTGADVNAFDQHGNTPLHLAAYRGHLEIVEVLLKTGADVNAHDNWGTTPLHLTAHNGHLEIVEVLLKAGADVNAQDKFGKTPFDLAIDNGNEDIAEVLQ
notes: also called designed ankyrin repeat domain #15; not shown: N terminal His6 tag; C terminal FLAG tag
In the case of B6, the binding result was “binds”.

B7: DARPin #13 (designed binder)
chain: DLGKKLLEAARAGQDDEVRILMANGADVNATDQHGRTPLHLAAHTGHLEIVEVLLKTGADVNAQDHQGITPLHLAAFKGHLEIVEVLLKTGADVNAQDNWGYTPLHLAAARGHLEIVEVLLKAGADVNAQDKFGKTPFDLAIDNGNEDIAEVLQ
notes: also called designed ankyrin repeat domain #13; not shown: N terminal His6 tag; C terminal FLAG tag
For the molecule B7, the binding result is listed as “binds”.

B8: DARPin #22 (designed binder)
chain: DLGKKLLEAARAGQDDEVRILMANGADVNASDWWGITPLHLAAYWGHLEIVEVLLKTGADVNAQDNQGITPLHLAATLGHLEIVEVLLKHGADVNAQDKFGKTPFDLAIDNGNEDIAEVLQ
notes: also called designed ankyrin repeat domain #22; not shown: N terminal His6 tag; C terminal FLAG tag
Consider B8, for which the binding result was “binds”.

B9: DARPin #12 (designed binder)
chain: DLGKKLLEAARAGQDDEVRILMANGADVNAQDQRGRTPLHLAAAWGHLEIVEVLLKTGADVNAADDMGHTPLHLAAAFGHLEIVEVLLKHGADVNAQDKFGKTPFDLAIDNGNEDIAEVLQ
notes: also called designed ankyrin repeat domain #12; not shown: N terminal His6 tag; C terminal FLAG tag
Turning to B9, the binding result was “binds”.

B10: DARPin #26 (designed binder)
chain: DLGKKLLEAARAGQDDEVRILMANGADVNAIDWWGITPLHLAALFGHLEIVEVLLKTGADVNAEDRLGFTPLHLAATTGHLEIVEVLLKAGADVNAQDKFGKTPFDLAIDNGNEDIAEVLQ
notes: also called designed ankyrin repeat domain #26; not shown: N terminal His6 tag; C terminal FLAG tag
As for B10, the binding result is “binds”.

B11: DARPin #8 (designed binder)
chain: DLGKKLLEAARAGQDDEVRILMANGADVNAADEYGITPLHLAAFFGHLEIVEVLLKTGADVNADDAWGSTPLHLAAYKGHLEIVEVLLKHGADVNAQDKFGKTPFDLAIDNGNEDIAEVLQ
notes: also called designed ankyrin repeat domain #8; not shown: N terminal His6 tag; C terminal FLAG tag
Consider B11, for which the binding result is “binds”.

B12: DARPin #16 (designed binder)
chain: DLGKKLLEAARAGQDDEVRILMANGADVNAKDRYGITPLHLAAYWGHLEIVEVLLKAGSDVNALDYHGSTPLHLAAWFGHLEIVEVLLKHGADVNAQDKFGKTPFDLAIDNGNEDIAEVLQ
notes: also called designed ankyrin repeat domain #16; not shown: N terminal His6 tag; C terminal FLAG tag
B12: the binding result is listed as “binds”.

B13: DARPin #24 (designed binder)
chain: DLGKKLLEAARAGQDDEVRILMANGADVNAIDVHGITPLHLAAYWGHLEIVEVLLKAGADVNAEDESGHTPLHLAAHWGHLEIVEVLLKHGADVNAQDKFGKTPFDLAIDNGNEDIAEVLQ
notes: also called designed ankyrin repeat domain #24; not shown: N terminal His6 tag; C terminal FLAG tag
Consider B13, for which the binding result was “binds”.

B14: DARPin #21 (designed binder)
chain: DLGKKLLEAAELGQLDEVRILMANGADVNAMDQHGITPLHLAAWHGHLEIVEVLLKTGADVNAKDQDGSTPLHLAAYLGHLEIVEVLLKTGADVNAFDKFGNTPLHLAAHRGHLEIVEVLLKHGADVNAQDKFGKTPFDLAIDNGNEDIAEVLQ
notes: also called designed ankyrin repeat domain #21; not shown: N terminal His6 tag; C terminal FLAG tag
Regarding B14, the binding result was “binds”.

B15: DARPin #1 (designed binder)
chain: DLGKKLLDAARAGQDDEVRILMANGADVNAMDVWGVTPLHLAAWHRHLEIVEVLLKTGADVNANDDSGFTPLHLAAHWGHLEIVEVLLKHGADVNAQDKFGKTPFDLAIDNGNEDIAEVLQ
notes: also called designed ankyrin repeat domain #1; not shown: N terminal His6 tag; C terminal FLAG tag
For the molecule B15, the binding result is recorded as “binds”.

B16: DARPin #10 (designed binder)
chain: DLGKKLLEAARAGQDDEVRILMANGADVNAADDQGRTPLHLAAMHGHLEIVEVLLKTGADVNANDWFGITPLHLAAWWGHLEIVEVLLKAGADVNAVDHSGDTPLHLAAHLGHLEIVEVLLKHGADVNAQDKFGKTPFDLAIDNGNEDIAEVLQ
notes: also called designed ankyrin repeat domain #10; not shown: N terminal His6 tag; C terminal FLAG tag
With B16, the binding result is given as “binds”.

B17: DARPin #3 (designed binder)
chain: DLGKKLLEAARAGQDDEVRILMANGADVNAQDMTGKTPLHLAAREGHLEIVEVLLKTGADVNAKDLWGVTPLHLAAFSGHLEIVEVLLKTGADVNAWDWEGKTPLHLAAVKGHPEIVEVLLKHGADVNAQDKFGKTPFDLAIDNGNEDIAEVLQ
notes: also called designed ankyrin repeat domain #3; not shown: N terminal His6 tag; C terminal FLAG tag
For the molecule B17, the binding result is recorded as “binds”.

B18: DARPin #11 (designed binder)
chain: DLVKKLLEAARAGQDDEVRILMANGADVNANDHFGITPLHLTAWWGHLEIVEVLLKAGADVNAVDHWGTTPLHLAAHQGHLEIVEVLLKHGADVNAQDKFGKTAFDISIDNGNEDIAEVLQ
notes: also called designed ankyrin repeat domain #11; not shown: N terminal His6 tag; C terminal FLAG tag
B18: the binding result is reported as “binds”.

B19: DARPin #23 (designed binder)
chain: DLGKKLLEAARYGQDDEVRILMANGADVNAEDQHGHTPLHLAAFSGHLEIVEVLLKTGADVNANDINGVTPLHLAANVGHLEIVEVLLKHGADVNAQDKFGKTPFDLAAYLGNEDIAEVLQ
notes: also called designed ankyrin repeat domain #23; not shown: N terminal His6 tag; C terminal FLAG tag
As to B19, the binding result is given as “binds”.
